Results on one substance are retold here after article PMC12955871, “Structure‐Guided Engineering of a Promiscuous O‐Methyltransferase for a SAM Regeneration Biocatalysis Platform of Methylated Pharmaceuticals” (Advanced Science, 2025).

As a reminder, the Km is the concentration of substrate that gives half-maximal velocity.

Experiment in all cases: HPLC product formation, Michaelis-Menten fit
Format in all cases: biochemical, Selaginella moellendorffii

The test system of data set [1] is O=c1ccc2cc3ccoc3c(O)c2o1. Particulars: 1.6 mM SAM, pH 8.0, 37 °C.
The test system of data set [2] is CC(=O)c1ccc(O)c(O)c1O. The note with it: 1.6 mM SAM, pH 8.0, 37 °C, no added SAH, crystal structure is the SAH ternary complex.
The test system of data set [3] is O=c1c(O)c(-c2ccc(O)c(O)c2)oc2cc(O)cc(O)c12. The note with it: 1.6 mM SAM, pH 8.0, 37 °C.

Consider SmOMT (Selaginella moellendorffii), for which the Michaelis constant (Km) in data set [1] is recorded as 225.4 µM; in data set [2], 51.7 µM; in data set [3], 585.1 µM.
